In the DeepSol protein solubility set:

Test: soluble on expression in E. coli; label from the status in PepcDB or PDB records

Sequence	soluble on expression in E. coli
MSSAQRVVITPGEPAGSGPDLVVQLAQRAWPIELVVCADGALLTERAAMLGLPLSLLPYSPDVPAAPQPAGTLTLLPVSLRAPAISGQLTVENGPYVVETLARACDGCLNGEFAALITGPVHKGVINDAGISFTGHTEFFEERSQAKKVVMMLATEELRVALATTHLPLRAIADAITPALLHEVIAILHHDLRTKFGIAEPRILVCGLNPHAGEGGHMGTEEIDTIIPVLDELRAQGMKLNGPLPADTLFQPKYLDNADAVLAMYHDQGLPVLKYQGFGRGVNITLGLPFIRTSVDHGTALELAGRGKADVGSFITALNLAIKMIVNTQ	soluble
MSLDPVGPISDEETSYYVRLQYNGEFLPLFTKVDGITYKKDKSDYSPLKPSFIAGGGAFGYKMDDIRVDVEGVYSYLNKNDVKDVTFDPANTIADSVTAISGLVNVYYDIAIEDMPITPYIGVGVGATYISTPLEPAVNDQKSKFGFAGQVKAGVSYDVTPEVKLYAGARYFGSYGANFDGKKTDPKDSTRQVTDAGAYKVLYSTVGAEAGVAFNFEGHHHHHH	not soluble
MKRCLDKGKTMDALKHALQMLNEMRTAELSPKFYYRLYMDSMHELQCLEVNLVQEYAQEPAKLGNLYECVQYASAIIPRLYLLVTIGGVFIKCGLGSRKEILKDLVEMCRGVQHPLRGLFLRNYLMQCTRSVLPDFPETEEMLVAHNDNLSKGTPKLKPRDGTVDDTIDFVLINFAEMNKLWVRMQHQGPSKEKEKREKDRMELRILVGTNLVRLAQLEALTEEMYVKDVLPSILEQIVSCRDPISQEYLMECVIQVFADDFHLATLTEFLNACGQLQQDVNIKILLIALVDRLALYTTSYNEGQPAPTKMQLFEIFSEQATTLIKNRPDMPLDDIVALHVSLVSLAVKCYPDRQDYANMTFQGLRQVIEEKGVTDIEAFGKVGRELTKLLNIPIDEYKNVLRLSQLPEYIKVMNYFDYRGQCNIASYMIQNMLEEETVFRNQDDVDSAFSLISSLLKDQEKQSSDSHETEEFADEQNLVARLLHLIRADDVDSQFLLLNSARKTLGEGGRHRLRYTLPPIIFELYRLVLQFSDMKDEDDKWDAKIRKMFVCAMGTIGALVSTAELAELPMKLYLNGAITADRVPFEDNHTVVYEFVSKALSILEDDVVDSRDRVRCLHLTVGTLLKTTHLPEENWQPLANQTVLAAAKMFKKPDQVRSLVTVAALYWHGQTLETNGEKMKNGKKVVDILRKAAKIARECLEPLVQQQLFIQLLSAYTYYYEDNCSEVNVDHIEELIARTQDNAVQLDVSAEADSLEKQLGEAIRRLQLAKLDVAAAQATTIRSEPELPQPPS	soluble
MGSDKIHHHHHHMMRRRLPSLIALRAFEAVGRTGSVRAAGDELAVSHTVVSRHLQNLQKFLGVALVRGEGRGVILTEAGVSFHAQISQAFDIIARATTAARPSSLPTLNIWCIPGIANRLLLSRLPELTGPPRNWEVNLQPTLTHPDLSRAEADAEIVYADVIDSRGPLMSEILVRPRVFPVASPAYLARYPAITSLEDLSQIALIHEESTMQWTRWFELAGLDDLPPLRGQRLWHAHLAIEAARLGQGVALANDVLVEEDLRSGALVEVITSSVYMETYQLVALKERWDDPAIVALRNWLKQVLAELE	not soluble
MNHLGKTEVFLNRFALRPLNPEELRPWRLEVVLDPPPGREEVYPLLAQVARRAGGVTVRMGDGLASWSPPEVLVLEGTLARMGQTYAYRLYPKGRRPLDPKDPGERSVLSALARRLLQERLRRLEGVWVEGLAVYRREHARGPGWRVLGGAVLDLWVSDSGAFLLEVDPAYRILCEMSLEAWLAQGHPLPKRVRNAYDRRTWELLRLGEEDPKELPLPGGLSLLDYHASKGRLQGREGGRVAWVADPKDPRKPIPHLTGLLVPVLTLEDLHEEEGSLALSLPWEERRRRTREIASWIGRRLGLGTPEAVRAQAYRLSIPKLMGRRAVSKPADALRVGFYRAQETALALLRLDGAQGWPEFLRRALLRAFGASGASLRLHTLHAHPSQGLAFREALRKAKEEGVQAVLVLTPPMAWEDRNRLKALLLREGLPSQILNVPLREEERHRWENALLGLLAKAGLQVVALSGAYPAELAVGFDAGGRESFRFGGAACAVGGDGGHLLWTLPEAQAGERIPQEVVWDLLEETLWAFRRKAGRLPSRVLLLRNGRVPQDEFALALEALAREGIAYDLVSVRKSGGGRVYPVQGRLADGLYVPLEDKTFLLLTVHRDFRGTPRPLKLVHEAGDTPLEALAHQIFHLTRLYPASGFAFPRLPAPLHLADRLVKEVGRLGIRHLKEVDREKLFFV	soluble
WLEPYLAGVTSVKGLQSVSVLQALKHYLGWELSQQLDEWLPTHHLLPTGNHKKIRYQLGMEPTLSVRMQEVFGEQSSPRVAKGTRAVVMELLSPAQRPLQVTRDLASFWAGAYKEVQKEMKGRYPKHVWPDDPANHVATSKTKRQLNA	not soluble
MKDGEAATGQAASRPKRADARRNEKNLLDAAAAVFVRSGVEAPVRDIAAEAGVGTATIYRHFPTRADLIIGVYRHQVEACAEAGPALLASSPTPYAALAGWIDLFVDFLVTKHGLAAVLQSDSAGFETLHAYFLDRLVPVCTDLLAAATDSGEIDTDVPPLALMRGVGNLCIGAETPNPSYDARQLVRILIAGLRAAD	not soluble
AMSYTPGQPVTAVVQRVEIHKLRQGENLILGFSIGGGIDQDPSQNPFSEDKTDKGIYVTRVSEGGPAEIAGLQIGDKIMQVNGWDMTMVTHDQARKRLTKRSEEVVRLLVTRQ	soluble
MGPYNYGWHDSDEAGKKARRGLDEDVVRYISAQKNEPEWMLEQRLKALNTFEKKPMPTWGPDLSYINFDDFKYYVRSTEKQATTWDDLPEDIKNTYDKLGIPEAEKQRLVAGVAAQYESEVVYHQIREDLETQGVIFLDTDTALKEHPELFQEYFGTVVPAGDNKFSALNSAVWSGGSFVYVPKGVHVEIPLQAYFRINTENMGQFERTLIIVDEGAYVHYVEGCTAPIYQSDSLHSAVVEIIVKKNARCRYTTIQNWSNNVLNLVTQRSKVEEGGTMEWVDGNIGSKVTMKYPAVWMVGPHAKGEVLSAAFAGEGQIQDTGAKMQHMAPYTSSNIVSKSVARSGGRAAYRGLVRVAANAHHSVSNVECDALLVDNISRSDTYPYNDIRNDHVSLGHEATVSQVSEEQLFYLQSRGIAEDEAMAMIVRGFVEPIAKELPMEYALELNRLIELQMEGSVG	not soluble
MTLQQEIIQALGAKPHINPEEEIRRSVDFLKAYLKTYPFLKSLVLGISGGQDSTLAGKLSQMAIAELREETGDNALQFIAVRLPYGVQADEQDCQDAIAFIQPDRVLTVNIKGAVLASEQALREAGIELSDFVRGNEKARERMKAQYSIAGMTHGVVVGTDHAAEAITGFFTKYGDGGTDINPLHRLNKRQGKQLLAALGCPEHLYKKVPTADLEDDRPSLPDEAALGVTYDNIDDYLEGKTLDPAIAKTIEGWYVKTEHKRRLPITVFDDFWKR	soluble
MGSDKIHHHHHHMDEVLSFKRGRVPLLISMPHPGTRLTPAVDAGLVEEARALTDTDWHIPRLYDFAEELGASTLAAHYSRYVVDLNRPSDDKPLYSTATTGLYPDTLFDGRPLYREGMAPSAEERMRYLAEVWTPYHRTIAEELARLKAEFGYALLWDAHSIRSHVPHLFDGRLPDFNLGTNAGASCDPALAARLEAVCAAAEGYSHVLNGRFKGGHITRHYGQPEQHVHAVQLELAQCTYMDEQAPFAYRADLAEATRAVIRELLESLLAWGRERYA	not soluble
GMPIIIDKDLPARKVLQEENIFVMTKERAETQDIRALKIAILNLMPTKQETEAQLLRLIGNTPLQLDVHLLHMESHLSRNVAQEHLTSFYKTFRDIENEKFDGLIITGAPVETLSFEEVDYWEELKRIMEYSKTNVTSTLHICWGAQAGLYHHYGVQKYPLKEKMFGVFEHEVREQHVKLLQGFDELFFAPHSRHTEVRESDIREVKELTLLANSEEAGVHLVIGQEGRQVFALGHSEYSCDTLKQEYERDRDKGLNIDVPKNYFKHDNPNEKPLVRWRSHGNLLFSNWLNYYVYQETPYVL	soluble
GMSNINYVILTVASVDFSYRETMARLMSSYSKDLIDNAGAKGTRFGSIGTGDHAGSLIFIQFYDDLTGYQKALEIQSKSSVFKEIMDSGKANIYLRNISTSLPTKFEQSYEHPKYIVLTRAEAAMSDKDKFLNCINDTASCFKDNGALTLRFGNLLTGSNVGNYLLGVGYPSMEAIEKTYDELLAHSSYKELMTFAKVNMRNIIKIL	soluble
PLEDWPDDVLASLPRGISRHTVRFVNVDGHVFAIKEIGQKAAYHEYKMLRDLNRLGAPSVQPLAVITGRVDATGQPLTPALVTEHLSFSLPYRAVFSQTSVSRSMRPETATR	not soluble
MSLQNTVPSETPSPATPSPTSTVNLSDVSSDYWARPFIQAMADNNVIAGFPDGSFRPNQAVTRAEFAALIQKAFPNQNRVRQLSAGGFRDVPAGYWAISPIQYAYETGFLAGYPGNVFSPNQQIPKVQAIVAMTSGLGLTASNTGASTDLSTYYTDASSIPQYAIASVTTATQSNIVVNYPDVKQMNPQQPLTRAEVAALLYQALAKQGRVQPIASNLPASQYIVGGTEGHHHHHH	soluble
MNVDLHCHSTASDGALSPTALVARAHEYGVRVLSLTDHDTLEGLEEARTAAHSLGMQLVNGVELSCTWGGATIHVLGYGFDTQAPALTEAIARLHEGRWLRAEEISRKLAIKGMPGALEGARAIQQALGDSGNAPARPHFADFMVRAGFVKDRAEAFRKWLGAGKLGDVKQHWPTLEDTVATLRASGAWVSLAHPSHYDFTRSKRRKLVGDFVQAGGHAIEVVNGMQPADQVGTLAILAREFGLLVSAGSDFHGPGNWGEIGTYRPVPEDLPPLWCRF	soluble
MGSDKIHHHHHHMTQLPNFSQSLSQLIACPSISSTQPSWDQGNKEVIQLLATWFEQLDFNIEIQAVPNTSNKFNLLAKLGSGEGGLLLAGHSDTVPFDENRWQSNPHTVVNQDDKFFGLGTCDMKGFFAFILQVCKNLRADQLKKPLYILATADEETTMAGARFFAKSQAIKPDVAIIGEPTNLVPVVMHKGHMSHRISVEGKSGHSSKPNLGINAIEIMYKVIGQLIELKEKFQLNYENQAFDVPAPTLNLGAISGGDNANRICGHCHLDIDLRSLPGMSDDELINWLSEALKPLAELYPGRISFEEMHPSSPSFEQKKPSTLIDIAQEISGHSCCAVNYATEAPYIQQLGCQTIVLGPGSIDQAHQPNEFLAHSEIDKTEKLLTKMIQHYCL	not soluble
MGAFFMSVVSAFAGAAEACRPTGALQNVEVARVVDGDTVRLRDGRSVRLIGINAPELAHNGRTTEPFAEAAKQRLQALVSASDGRLALQPGRQARDHYGRTLAHLFDASGANLEARLLGEGLGYLVAVAPNTELTACQQAAERAARSANLGVWKRSPVLSLDRLAQSGFAVVRGRVLEVERNRGGIWLEMDGPLVLRIEPKVLKAFDAKRVMQMAGRSLEVRGWVVDRSRRGAVPAGKARWQMSVTDPAMLEWLPLEHHHHHH	not soluble
MGSDKIHHHHHHMKEIINLDEMIMLLKTIAESSRLRLLALLYHEDLTVSDFTLVLGQSQSHVLQHLHLLYEAQLVERYQKGRSIYFKLYYGRLGKDIVMAVVSALLEHNRVIAHDLARLKDIKKQYRKQEKKYFLQNVVQWDTLRLFSIADLGVENALREIVGDKPFETMLDISRDTGSVLKLFSGLYTYAVEVVLDSDILHLSVENTTFDLVILHWVLYFLESPEVALHEIAGVLRPHGRLLIVDFVRHEVESSHSYLSHMPFGFSDLQIEQWLKNVGLILEKIICFPPLQNENNERLMVKIWLARDPRLLVDDIKDKKVEFA	not soluble
